The values below come from paper PMC8223476 (2021).

In this test the target is Biotinylated SARS-CoV-2 (COVID-19) S protein RBD, His, Avitag (bRBD) (SARS-CoV-2, UniProt P0DTC2, biotinylated). Put plainly: flow cytometry on cells. Background: A flow cytometer gives signals particle by particle.

B1: C119 (IgG) (antibody, V domains shown)
VH: QVQLVQSGAEVKKPGASVKVSCKASGYTFTSYYMHWVRQAPGQGLEWMGIINPSGGSTSYAQKLQGRVTMTRDTSTSTVYMELSSLRSEDTAVYYCARANHETTMDTYYYYYYMDVWGKGTTVTVSS
VL: QSALTQPASVSGSPGQSITISCTGTSSDVGGYKYVSWYQRHPGKAPKLMIYDVSNRPSGVSNRFSGSKSGNTASLTISGLQAEDEADYYCSSYTSSSTSVVFGGGTQLTVL
Regarding B1, the binding result is reported as “binds”.
